According to PMC8038949, “Structural basis for the DNA-binding activity of human ARID4B Tudor domain”:

Assays:
[1] = biological target: T1, ARID4B TD151 (Homo sapiens, UniProt Q4LE39 1-151); assay: ITC; 50 mM Tris-HCl pH 7.6, 50 mM NaCl (buffer A); ITC 25 C; EMSA 4 C, 12 uM DNA, 8% native gel in TBE; NMR titration by 1H-15N HSQC (temperature not stated for titration; buffer A also defined elsewhere as 20 mM phosphate, 100 mM NaCl, pH 7.0); details: protein: recombinant; chain copies: 3; 5' overhang 1 nt on each strand (17 bp paired)
T1 sequence: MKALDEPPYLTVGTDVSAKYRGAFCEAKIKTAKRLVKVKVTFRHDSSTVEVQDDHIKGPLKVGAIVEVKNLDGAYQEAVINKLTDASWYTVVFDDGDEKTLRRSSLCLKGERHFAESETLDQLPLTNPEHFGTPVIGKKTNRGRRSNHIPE

[2] = biological target: T1, ARID4B TD151; assay: NMR titration; n fixed 3; 50 mM Tris-HCl pH 7.6, 50 mM NaCl (buffer A); ITC 25 C; EMSA 4 C, 12 uM DNA, 8% native gel in TBE; NMR titration by 1H-15N HSQC (temperature not stated for titration; buffer A also defined elsewhere as 20 mM phosphate, 100 mM NaCl, pH 7.0); details: protein: recombinant; chain copies: 3; 5' overhang 1 nt on each strand (17 bp paired)
[3] = biological target: T2, ARID4A TD151 (Homo sapiens, UniProt P29374 4-151); assay: NMR titration; n = 3; 50 mM Tris-HCl pH 7.6, 50 mM NaCl (buffer A); ITC 25 C; EMSA 4 C, 12 uM DNA, 8% native gel in TBE; NMR titration by 1H-15N HSQC (temperature not stated for titration; buffer A also defined elsewhere as 20 mM phosphate, 100 mM NaCl, pH 7.0); details: protein: recombinant; 5' overhang 1 nt on each strand (17 bp paired)
T2 sequence: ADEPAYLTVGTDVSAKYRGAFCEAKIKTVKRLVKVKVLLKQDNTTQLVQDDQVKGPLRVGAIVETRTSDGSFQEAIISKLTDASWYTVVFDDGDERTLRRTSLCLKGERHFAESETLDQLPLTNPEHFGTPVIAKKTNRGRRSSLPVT

[4] = biological target: T3, ARID4B TD121 (Homo sapiens, UniProt Q4LE39 1-121); assay: NMR titration; n fixed 5; text says ~110; 50 mM Tris-HCl pH 7.6, 50 mM NaCl (buffer A); ITC 25 C; EMSA 4 C, 12 uM DNA, 8% native gel in TBE; NMR titration by 1H-15N HSQC (temperature not stated for titration; buffer A also defined elsewhere as 20 mM phosphate, 100 mM NaCl, pH 7.0); details: protein: recombinant; 5' overhang 1 nt on each strand (17 bp paired)
T3 sequence: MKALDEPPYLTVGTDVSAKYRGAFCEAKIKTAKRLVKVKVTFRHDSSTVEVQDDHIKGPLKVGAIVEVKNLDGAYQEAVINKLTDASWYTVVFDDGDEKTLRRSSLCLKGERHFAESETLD

[5] = biological target: T3, ARID4B TD121; assay: NMR titration; n fixed 3; 50 mM Tris-HCl pH 7.6, 50 mM NaCl (buffer A); ITC 25 C; EMSA 4 C, 12 uM DNA, 8% native gel in TBE; NMR titration by 1H-15N HSQC (temperature not stated for titration; buffer A also defined elsewhere as 20 mM phosphate, 100 mM NaCl, pH 7.0); details: protein: recombinant; 5' overhang 1 nt on each strand (11 bp paired)
[6] = biological target: T1, ARID4B TD151; assay: NMR titration; n fixed 2; 50 mM Tris-HCl pH 7.6, 50 mM NaCl (buffer A); ITC 25 C; EMSA 4 C, 12 uM DNA, 8% native gel in TBE; NMR titration by 1H-15N HSQC (temperature not stated for titration; buffer A also defined elsewhere as 20 mM phosphate, 100 mM NaCl, pH 7.0); details: protein: recombinant; chain copies: 3; 5' overhang 1 nt on each strand (11 bp paired)

B1: dsDNA1 (dsDNA)
DNA 1: CTCAGGTCAAAGGTCACG
DNA 2: TCGTGACCTTTGACCTGA
- Kd [1]: 27 ± 8 µM
- Kd [2]: 22 µM
- Kd [3]: 9.7 ± 0.9 µM
- Kd [4]: 111 ± 2 µM

B2: dsDNA2 (dsDNA)
DNA 1: CTGTCAAAGGTG
DNA 2: TCACCTTTGACA
- Kd [5]: 237 ± 7 µM
- Kd [6]: 79 ± 3 µM
